Substrate: Nc1ncnc2c1ncn2[C@@H]1O[C@H](COP(=O)(O)OP(=O)(O)OP(=O)(O)O)[C@@H](O)[C@H]1O
Experiment: malachite green ATPase assay, Michaelis-Menten fit
Assay type: biochemical, Homo sapiens
Conditions: 1 μM protein, no DNA (basal activity), 37 °C
Description: malachite green ATPase assay, Michaelis-Menten fit on hSWS1-SWSAP1 (human Shu complex)

B1: hSWS1-SWSAP1 (human Shu complex) (Homo sapiens) (protein)
chain: MPAAGPPLLLLGTPGSGKTALLFAAALEAAGEGQGPVLFLTRRPLQSMPRGTGTTLDPMRLQKIRFQYPPSTRELFRLLCSAHEAPGPAPSLLLLDGLEEYLAEDPEPQEAAYLIALLLDTAAHFSHRLGPGRDCGLMVALQTQEEAGSGDVLHLALLQRYFPAQCWLQPDAPGPGEHGLRACLEPGGLGPRTEWWVTFRSDGEMMIAPWPTQAGDPSSGKGSSSGGQP
notes: heterodimer co-expressed in High Five insect cells (baculovirus); SWSAP1 with TEV-cleavable N-terminal 6xHis tag (cleaved), SWS1 untagged; with Zinc finger SWIM domain-containing protein 7
Q: Which results are given for B1?
A: Km: 10.0 ± 0.2 mM; Vmax: 0.75 µM/min; kcat: 0.0125 s⁻¹; kcat/Km: 1.3 M⁻¹ s⁻¹

— paper PMC12167799, “The role of human Shu complex in ATP-dependent regulation of RAD51 filaments during homologous recombination–associated DNA damage response” (The Journal of Biological Chemistry, 2025)
